# Data reported in patent US20220267462A1 (HARPOON THERAPEUTICS, published 2022).
# Residue numbers refer to the chain shown, from its start.
# B1: EPL145 (VHH)
# VHH: QVQLQESGGGLVQAGGSLRLSCAASGFIFRAASMGWFRQSPGNERELVATVSSGGFTNYADSVKGRFTISRDNAKNTVYLQMNSLKPEDTAVYFCGATFVRSDGHHTIYGQGTQVTVSS
# B2: EPL159 (VHH)
# VHH: QVQLQESGGGLVQAGGSLRLSCAASGFAFGNHWMYWYRQAPGRGRELVASISSGGSTNYVDSVKGRFTISRDNARNTVYLQMYSLKPEDTAVYYCGTSDNWGQGTQVTVSS
# B3: EPL57 (VHH)
# VHH: QVQLQESGGGLVHTGGSLRLSCAFSGDTFLRYAMGWFRQAPGKEREFVAAITWNGGNTDYADSLKGRFTISRDNTKNTVYLQMNSLRPEDTAVYYCAADLTFGLASSHYQYDYWGQGTQVTVSS
# B4: EPL136 (VHH)
# VHH: B3 VHH with H13Q, T14P, F24A, D62G, R87K
# B5: EPL15 (VHH)
# VHH: QVQLQESGGGSVLAGGSLRLSCAASGFTFSSYYMSWVRQAPGKGLEWVSGIHYTGDWTNYADSVKGRFTISRDNAKNELYLEMNNLKPEDTAVYYCARGSDKGQGTQVTVSS
# B6: EPL34 (VHH)
# VHH: B5 VHH with L13Q
# B7: EPL86 (VHH)
# VHH: QVQLQESGGGLVQPGGSLRLSCAASGFTFSDWAMSWVRQAPGKGLEWVSGIHYGDHTTHYADFVKGRFTISRDDAKNTLYLQMNSLKPEDTAVYYCARGSTKGQGTQVTVSS
# B8: EPL153 (VHH)
# VHH: B7 VHH with G50S, A97E, R98K, S100T, K102R
# B9: EPL20 (VHH)
# VHH: QVQLQESGGGLVQAGGSLKLSCAASGNVFRAATMAWYRQAPEKQREMVATIASGGTTNYADFVKGRFTISRDNAKNTVYLQMNTLKPEDTAVYYCNAGYLTSLGPKNYWGQGTQVTVSS
# B10: EPL125 (VHH)
# VHH: B9 VHH with K19R, A40V, G98L, N107S
# B11: EPL13 (VHH)
# VHH: B2 VHH with A14P
# B12: EPL129 (VHH)
# VHH: B2 VHH with K86R
# B13: EPL60 (VHH)
# VHH: QVQLQESGGGLVQAGGSLRLSCAASEYILSMYRMAWYRQAPGKVRELVADMSSGGTTNYADFVKGRFTISRDNDRNTVYLQMNRLQPEDTAAYYCNVAGRTGPPSYDAFNNWGQGTQVTVSS
# B14: EPL156 (VHH)
# VHH: B13 VHH with A14P, G16A, L20V
# Biological target: cynomolgus EpCAM protein (cynomolgus)
# Test: colorimetric ELISA
row,Binder,Cynomolgus EpCAM/Control
1,B1,2
2,B2,2

# Biological target: T1, human EpCAM protein (human, UniProt P16422 24-265, biotinylated in the Octet assays (site not stated))
# T1 construct: also called hu EpCAM; biotinylated human EpCAM protein
# T1 sequence: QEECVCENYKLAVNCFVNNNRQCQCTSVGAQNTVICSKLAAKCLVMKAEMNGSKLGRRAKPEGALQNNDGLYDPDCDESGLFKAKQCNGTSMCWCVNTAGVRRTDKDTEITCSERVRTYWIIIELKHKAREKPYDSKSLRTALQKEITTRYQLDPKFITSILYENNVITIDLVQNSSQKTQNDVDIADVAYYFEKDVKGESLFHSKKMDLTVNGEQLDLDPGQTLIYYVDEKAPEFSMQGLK
# Test: colorimetric ELISA
# Source text: (§1) A phage display library for expression of heavy variable antibody domains was constructed from circulating B cells. See van der Linden, de Geus, Stok, Bos, van Wassenaar, Verrips, and Frenken. 2000. J Immunol Methods 240:185-195.
row,Binder,Human EpCAM/Control
1,B1,3
2,B3,14
3,B4,9
4,B5,8
5,B6,10
6,B7,8
7,B8,31
8,B9,6
9,B10,8
10,B11,17
11,B12,20
12,B13,10
13,B14,16

# Biological target: T2, cynomolgus EpCAM protein (cynomolgus, UniProt Q1WER1 27-265 (rhesus entry), limits assumed, biotinylated in the Octet assays (site not stated))
# T2 construct: also called cy EpCAM; biotinylated cynomolgus EpCAM protein
# T2 sequence: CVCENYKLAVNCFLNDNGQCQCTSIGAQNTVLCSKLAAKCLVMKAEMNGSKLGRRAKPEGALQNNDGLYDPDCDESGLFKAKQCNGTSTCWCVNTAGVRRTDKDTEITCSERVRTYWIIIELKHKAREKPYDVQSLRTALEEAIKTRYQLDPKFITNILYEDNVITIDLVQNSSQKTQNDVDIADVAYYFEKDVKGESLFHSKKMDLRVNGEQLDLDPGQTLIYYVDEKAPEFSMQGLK
# Test: colorimetric ELISA
# Source text: as §1
row,Binder,Cynomolgus EpCAM/Control
1,B3,27
2,B4,13
3,B5,35
4,B6,36
5,B7,31
6,B8,21
7,B9,4
8,B10,8
9,B11,23
10,B12,29
11,B13,33
12,B14,17
